Experiments:
[1] = biological target: T1, soluble FZD10 protein without the signal peptide (the region of amino acids 21 to 161) (human, UniProt Q9ULW2 21-161); test: ELISA screening of hybridomas on soluble FZD10 protein
T1 construct: Immunogen and ELISA screening antigen; also called recombinant human FZD10 protein; N-terminal extracellular domain peptide of FZD10
T1 sequence: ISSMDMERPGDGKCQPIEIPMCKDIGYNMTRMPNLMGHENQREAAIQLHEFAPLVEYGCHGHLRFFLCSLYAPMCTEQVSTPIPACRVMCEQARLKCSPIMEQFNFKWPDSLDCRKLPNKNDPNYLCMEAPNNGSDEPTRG

[2] = biological target: T2, full length FZD10 protein (human) (human, UniProt Q9ULW2 21-581); test: immunohistochemical staining, paraffin section of a clinical lung cancer specimen
T2 construct: Live cells in flow cytometry; formalin-fixed paraffin sections in IHC
T2 sequence: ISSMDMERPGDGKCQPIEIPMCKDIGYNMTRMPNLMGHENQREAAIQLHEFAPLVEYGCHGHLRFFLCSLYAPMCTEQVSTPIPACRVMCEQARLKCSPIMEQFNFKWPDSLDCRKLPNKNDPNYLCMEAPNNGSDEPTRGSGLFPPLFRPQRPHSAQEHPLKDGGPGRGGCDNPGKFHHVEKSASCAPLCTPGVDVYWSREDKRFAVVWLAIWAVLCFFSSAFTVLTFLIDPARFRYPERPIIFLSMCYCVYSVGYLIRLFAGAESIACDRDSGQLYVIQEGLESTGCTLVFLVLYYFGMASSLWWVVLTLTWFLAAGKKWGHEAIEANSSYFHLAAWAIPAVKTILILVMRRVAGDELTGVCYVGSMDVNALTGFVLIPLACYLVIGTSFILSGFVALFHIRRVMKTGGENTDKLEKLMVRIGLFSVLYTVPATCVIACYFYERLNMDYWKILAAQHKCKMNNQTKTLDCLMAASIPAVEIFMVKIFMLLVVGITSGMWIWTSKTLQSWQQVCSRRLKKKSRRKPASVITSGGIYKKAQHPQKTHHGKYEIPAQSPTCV
Procedure: For antigen retrieval treatment, sections immersed in Antigen Retrieval Solution pH9 (Nichirei Biosciences Inc.) were incubated at 125° C. for 30 seconds for FZD10/DLD1 and Mock/DLD1, and at 95° C. for 40 minutes for SYO1, T.T, H727, LoVo, COLO201, and clinical specimens. After incubation, they were allowed to stand at room temperature for 20 minutes, and then washed with running water for five minutes. The sections were immersed in 3.0% hydrogen peroxide for ten minutes to block endogenous peroxidases, and washed with Wash Buffer (TBS-T(Takara Bio)) for five minutes three times. Furthermore, to block nonspecific reactions, an appropriate amount of Protein Block Solution (Dako) was added dropwise onto the sections, and they were allowed to stand for ten minutes. […]
The specificity of the anti-FZD10 antibody of the present invention (10A8H4G4) in immunohistochemical staining was evaluated using paraffin sections prepared from mouse xenograft tumors of cancer cell lines and clinical lung cancer specimens. The expression of FZD10 protein and RNA in paraffin sections prepared from mouse xenograft tumors of SYO-1 and COLO201 and in cancerous and non-cancerous regions of clinical lung cancer specimens 1 to 6 was detected by immunohistochemical staining and real-time PCR, respectively, and the results are shown in FIG. 4.

binding result [1]: binds
binding result [2]: binds
B1: anti-FZD10 antibody (10A8H4G4) (antibody, V domains shown)
VH: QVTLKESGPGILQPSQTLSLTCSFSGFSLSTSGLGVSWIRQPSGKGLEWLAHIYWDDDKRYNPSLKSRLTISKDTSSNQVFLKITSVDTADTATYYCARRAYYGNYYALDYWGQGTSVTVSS
VL: DIVMTQSPSSLTVTAGEKVTMSCKSSQSLLNSGNQKNYLTWYQQKPGQPPKLLIYWASTRKSGVPDRFTGSGSGTDFTLTISSVQAEDLAVYYCQNDYSYPVTFGAGTKLELKR
notes: Mouse monoclonal antibody from hybridoma 10A8H4G4, purified from culture fluid on a Protein A column; it was detected with anti-mouse IgG (H+L); also called clone 10A8H4G4; FZD10Ab(10A8H4G4)
